Data: patent publication US20220332804A1 (CSL INNOVATION, published 2022)
Positions count from the first letter of the chain named.

Tests used:
Assay in all cases: SPR, mAb captured, C2 mutant analyte;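 also: Anti-C2 mAbs captured on goat anti-human IgG Biacore CM5 chips, alanine or serine C2 surface mutants flowed over at 37 °C, double-referenced sensorgrams fitted to a 1:1 binding model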
human C2 S278A = molecular target: T1, human C2 S278A (human, UniProt P06681 21-752)
T1 sequence: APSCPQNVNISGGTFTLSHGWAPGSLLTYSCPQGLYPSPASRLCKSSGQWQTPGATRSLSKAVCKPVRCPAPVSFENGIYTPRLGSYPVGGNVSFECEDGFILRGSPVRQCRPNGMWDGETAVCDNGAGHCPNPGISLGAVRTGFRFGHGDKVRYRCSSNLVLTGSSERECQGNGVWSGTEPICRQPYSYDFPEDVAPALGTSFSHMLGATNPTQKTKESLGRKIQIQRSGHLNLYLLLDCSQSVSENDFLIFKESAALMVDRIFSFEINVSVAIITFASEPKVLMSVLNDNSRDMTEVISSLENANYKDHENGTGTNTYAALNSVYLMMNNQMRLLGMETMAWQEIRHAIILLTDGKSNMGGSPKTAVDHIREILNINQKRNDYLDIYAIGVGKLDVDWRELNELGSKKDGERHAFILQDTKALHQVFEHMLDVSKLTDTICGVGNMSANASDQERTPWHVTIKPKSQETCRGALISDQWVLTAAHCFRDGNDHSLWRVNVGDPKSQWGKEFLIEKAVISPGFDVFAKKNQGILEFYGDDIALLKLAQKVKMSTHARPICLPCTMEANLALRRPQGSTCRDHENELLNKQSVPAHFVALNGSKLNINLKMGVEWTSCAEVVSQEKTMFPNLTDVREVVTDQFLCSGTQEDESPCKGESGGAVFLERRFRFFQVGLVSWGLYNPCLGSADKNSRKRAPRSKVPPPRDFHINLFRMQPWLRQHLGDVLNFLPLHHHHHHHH

human C2 D404A = molecular target: T2, human C2 D404A (human, UniProt P06681 21-752)
T2 sequence: T1 sequence with A258S, D384A

human C2 I320A = molecular target: T3, human C2 I320A (human, UniProt P06681 21-752)
T3 sequence: T1 sequence with A258S, I300A

human C2 M316A = molecular target: T4, human C2 M316A (human, UniProt P06681 21-752)
T4 sequence: T1 sequence with A258S, M296A

Kd (human C2 S278A): 34.5 nM
Kd (human C2 D404A): 77.6 nM
binding result (human C2 I320A): no binding
Kd (human C2 M316A): 30.2 nM
B1: RF16-214 (antibody, V domains shown)
VH: EVQLLESGGGLVQPGGSLRLSCAASGFTFSWYQMMWVRQAPGKGLEWVSRIYPSGGGTAYADSVKGRFTISRDNSKNTLYLQMNSLRAEDTAVYYCARDAGYGDNWGQGTLVTVSS
VL: QSALTQPPSVSVSPGQTASITCSGDKLGEKYASWYQQKAGQSPVMVIYQDRKRPSGIPERFSGSNSGNTATLTISGTQAMDEADYYCQAWDTRAVVFGGGTKLTVLG
